From US20210145921A1, “COMPOSITION COMPRISING VEGF ANTAGONISTS AND A CATIONIC PEPTIDE AND USES THEREOF” (UCL BUSINESS LTD, priority 2017, published 2021)

Columns and labels:
[1] = test system: HCE-S corneal epithelial barrier; test: in vitro HCE-S transwell transcytosis assay (Papp); type: in vitro ADME, human; details: for enhancement of delivery of Lucentis across the HCE-S barrier: Papp
Procedure: HCE-S barrier models for transcytosis assays were prepared using an adaptation of a previously described method.^[1] HCE-S cells (5×10^4 cells/well) were seeded on transwell inserts (poly-carbonate, 3 μm pore size, 1.13 cm^2) and maintained for 7 days refreshing the medium in the apical and basal chambers every second day. After this time cells were cultured for a further 10 days at an apical air interface to encourage development of a multilayer barrier. Prior to each experiment culture medium was replaced with phenol red free DMEM and barrier integrity measured via transepithelial resistance (TER). TER values were obtained in the range 300-600 Ωcm^2 and only epithelial barriers with TERs>300 Ω·cm^2, the accepted threshold for tight epithelial barriers, were used for transcytosis experiments.
Permeation studies were conducted to determine the rate of anti-VEGF transcytosis in the presence/absence of varying concentrations of R8. Experiments were initiated by adding 1.5 ml serum- and phenol red-free DMEM to the basal chamber and 0.5 ml to the apical chamber containing 0.1 mg/mL Avastin or Lucentis in the presence of varying molar ratios of R8. After 3 h, 100 μl of medium was withdrawn from the basal chamber and the concentration of anti-VEGF in the basal chamber was determined using established and commercially available sandwich ELISA techniques (KPL Protein Detector HRP Microwell Kit, Anti-Human Cat #54-62-10 with Jackson Immuno Research AffiniPure Rabbit Anti-Human IgG capture antibody).^[1] […] The permeability coefficient (Papp) of each anti-VEGF was determined as previously described^[1] using equation 1;
where CR is the final concentration of anti-VEGF recovered from the ELISA assay, CD is the initial concentration of anti-VEGFs added to the assay, tmin is the transcytosis time (180 min), VR is the volume of the receiving chamber (1.5 ml) and A represents the filter area (1.12 cm^2).
Lucentis (+/−Steryl-R8) were applied to the Apical chamber and the concentration crossing the barrier was determined from the basolateral chamber at different timepoints using a Lucentis sandwich ELISA. Intact HCE-S barrier was confirmed by measuring transepithelial resistance (>[…]) before each assay.

HCE-S cells = test: AlamarBlue cell viability assay; type: cell-based, human; details: 24 h exposure, up to 200/1 molar ratio
Procedure: HCE-S monolayers for uptake assays were prepared by seeding 96 well plates with 1×10^4 cells/well and maintaining for 5 days replacing the medium every other day. After this time, medium was replaced with that containing 100 μM calcein loaded PLVs in the presence or absence of 200 nM AnxA5. Cells were incubated with PLVs at 37° C. for 3 h protected from light. Epithelial monolayers were then washed three times in ice cold PBS (with calcium and magnesium) to remove free PLVs, followed by a single wash in ice cold isosmotic citrate buffer (pH 3) to remove surface bound PLVs before applying a PBS wash containing 1% Triton X-100 to solubilise membranes. Upon completion of each washing step, calcein fluorescence was measured using a 485 nm excitation and 515 nm emission with a SAFIRE micro plate reader (TECAN) HCE-S monolayers for viability assays were prepared by seeding 96 well plates with 1×10^4 cells/well and maintaining for 24 h at 37° C. in a humidified incubator with 5% CO2. […] Cells were incubated with anti-VEGF/R8 solutions for 24 h before viability of HCE-S cells in response to was assessed using the AlamarBlue (Invitrogen) cell viability assay according to manufacturers instructions. […]

[2] = dextran transcytosis assay; type: in vitro ADME
Source text: The fifth experiment conducted was whether R8 affected the transport of dextrans across a membrane, FIG. 27. Dextrans are complex branched polysaccharides made of many glucose molecules. They can be composed of chains of varying lengths.

[3] = in vivo rabbit study, topical instillation, anti-VEGF in eye tissue by sandwich ELISA; parameters: species or system New Zealand rabbits
Procedure: All animal experiments were performed in compliance with the ARVO Statement for the Use of Animals in Ophthalmic and Vision Research. New Zealand rabbits received unilateral topical instillations of 0.03 mL anti-VEGF in the presence of R8 (varying molar concentrations) either as a liquid or hydrogel formulations without anaesthesia. At the specified time after application animals were euthanized before enucleation, washing (PBS) and snap-freezing and dissection of ocular tissues. Samples were weighed and cryohomogenised before the concentration of anti-VEGF per gram of eye tissue determined using established sandwich ELISA protocols.

[4] = test system: human umbilical vein endothelial cell (HUVEC); details: cited from earlier work
rhVEGF165 = details: read-out: IC50, tissue factor up-regulation; cited from earlier work
[5] = human, in vivo; cited from earlier work
[6] = in vivo; cited from earlier work

In the case of `N=C(N)NCCC[C@H](NC(=O)[C@H](CCCNC(=N)N)NC(=O)[C@H](CCCNC(=N)N)NC(=O)[C@H](CCCNC(=N)N)NC(=O)[C@H](CCCNC(=N)N)NC(=O)[C@H](CCCNC(=N)N)NC(=O)[C@H](CCCNC(=N)N)NC(=O)[C@@H](N)CCCNC(=N)N)C(=O)O` [R8, RRRRRRRR], the “transcytosis of Lucentis, peptide alone without liposomes” value [1] is reported as “dramatic enhancement in transcytosis”, the “enhancement of delivery of Lucentis across the HCE-S barrier” value [1] is reported as “concentration dependent manner” and the “toxicity to HCE-S cells” value (HCE-S cells) is reported as “non-toxic”. For the same compound, the “effect on transport of different sizes of dextran across a membrane” value [2] was “made no difference”.

In the case of Ranibizumab [Lucentis], the “transport across the HCE-S barrier in the presence of R8 (ST-R8)” value [1] is reported as “aided the transport”, the “free Lucentis detected in retina” value ([3]; 2 h after topical instillation) is reported as roughly 20 ng and the “concentration detected in plasma” value ([3]; free Lucentis, topical instillation, 2 h) is reported as less than 0.1 ng/mL. For the same compound, the “proportion of dosed free Lucentis reaching the retina by the topical route” value ([3]; from dosed eye versus co-eye concentration, n=10) was roughly 30%, the “Lucentis delivery to the retina” value ([3]; liquid formulation, 2 h, n=3) was 18 ± 8 ng/g and the “levels of Lucentis in the vitreous and retina/choroid” value ([3]; rabbit, one eye dosed, 2 hours after topical application) was 10 ng/g tissue. The “concentration giving total inhibition of proliferation” value [4] was no less than 1.3 nM, the IC50 ([4]; read-out: IC50, VEGF-induced proliferation) was less than 1 nM and the IC50 (rhVEGF165) was 0.31 nM. For the same compound, the “clinical Cmax predicted at steady state” value [5] was 1.7 ng/mL, the “clinical Cmax, maximal individual level” value [5] was 2.4 ng/mL and the “half-life in the eye” value [6] was 173 h.

For Bevacizumab [Avastin], the “transport across the HCE-S barrier in the presence of R8 (ST-R8)” value [1] was “aided the transport”.

For `CCCCCCCCCCCCCCCCCC(=O)N[C@@H](CCCNC(=N)N)C(=O)N[C@@H](CCCNC(=N)N)C(=O)N[C@@H](CCCNC(=N)N)C(=O)N[C@@H](CCCNC(=N)N)C(=O)N[C@@H](CCCNC(=N)N)C(=O)N[C@@H](CCCNC(=N)N)C(=O)N[C@@H](CCCNC(=N)N)C(=O)N[C@@H](CCCNC(=N)N)C(=O)O` [ST-R8, Stearyl-R8], the “transcytosis of anti-VEGF (Lucentis) loaded liposomes” value [1] was “significantly enhanced” and the “enhancement of delivery of Lucentis across the HCE-S barrier” value [1] was “concentration dependent manner”.
